From patent USRE40789 (BAYLOR COLLEGE OF MEDICINE, dated 2009)

Target: T1, GST-Dun1 (Saccharomyces cerevisiae, UniProt P39009 1-513)
T1 construct: Control GST fusion; The species is stated only in the background paragraph, not where the pull-down is told; not shown: glutathione S-transferase (GST) fusion partner
T1 sequence (looked up): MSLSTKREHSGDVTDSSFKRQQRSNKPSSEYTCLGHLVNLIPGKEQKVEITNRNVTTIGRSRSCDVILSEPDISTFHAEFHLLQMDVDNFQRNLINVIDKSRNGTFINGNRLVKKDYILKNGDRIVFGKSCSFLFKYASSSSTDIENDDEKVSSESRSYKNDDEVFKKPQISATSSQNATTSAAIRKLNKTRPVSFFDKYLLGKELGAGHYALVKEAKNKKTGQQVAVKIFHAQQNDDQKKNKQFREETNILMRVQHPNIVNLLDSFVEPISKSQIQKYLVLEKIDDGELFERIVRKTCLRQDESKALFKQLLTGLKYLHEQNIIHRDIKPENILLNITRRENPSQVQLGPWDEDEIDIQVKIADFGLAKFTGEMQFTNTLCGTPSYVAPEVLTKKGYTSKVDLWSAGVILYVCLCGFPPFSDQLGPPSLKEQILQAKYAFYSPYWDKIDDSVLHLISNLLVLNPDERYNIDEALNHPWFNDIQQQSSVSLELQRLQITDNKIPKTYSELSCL
Experiment: GST pull-down on glutathione beads from baculovirus extracts, immunoblot with anti Chk1 antibodies

B1: His6-tagged hChk1 (enzyme)
chain: MAVPFVEDWDLVQTLGEGAYGEVQLAVNRVTEEAVAVKIVDMKRAVDCPENIKKEICINKMLNHENVVKFYGHRREGNIQYLFLEYCSGGELFDRIEPDIGMPEPDAQRFFHQLMAGVVYLHGIGITHRDIKPENLLLDERDNLKISDFGLATVFRYNNRERLLNKMCGTLPYVAPELLKRREFHAEPVDVWSCGIVLTAMLAGELPWDQPSDSCQEYSDWKEKKTYLNPWKKIDSAPLALLHKILVENPSARITIPDIKKDRWYNKPLKKGAKRPRVTSGGVSESPSGFSKHIQSNLDFSPVNSASSEENVKYSSSQPEPRTGLSLWDTSPSYIDKLVQGISFSQPTCPDHMLLNSQLLGTPGSSQNPWQRLVKRMTRFFTKLDADKSYQCLKETCEKLGYQWKKSCMNQVTISTTDRRNNKLIFKVNLLEMDDKILVDFRLSKGDGLEFKRHFLKIKGKLIDIVSSQKVWLPATHHHHHH
notes: Expressed in baculovirus; used as a crude baculovirus extract in the pull-down and purified in the kinase assay; also called hChk1-His6; His6-tagged hChk1 derivative
Question: Does B1 bind?
Answer: no binding
